{
  "source": "the DeepSol protein solubility set",
  "data": [
    {"assay": "soluble on expression in E. coli; label from the status in PepcDB or PDB records", "values": [
      {"sequence": "MGSDKIHHHHHHMNRKVAIVTGTNSNLGLNIVFRLIETEDTNVRLTIVVTSRTLPRVQEVINQIKDFYNKSGRVEDLEIDFDYLLVDFTNMVSVLNAYYDINKKYRAINYLFVNAAQGIFDGIDWIGAVKEVFTNPLEAVTNPTYKIQLVGVKSKDDMGLIFQANVFGPYYFISKILPQLTRGKAYIVWISSIMSDPKYLSLNDIELLKTNASYEGSKRLVDLLHLATYKDLKKLGINQYVVQPGIFTSHSFSEYLNFFTYFGMLCLFYLARLLGSPWHNIDGYKAANAPVYVTRLANPNFEKQDVKYGSATSRDGMPYIKTQEIDPTGMSDVFAYIQKKKLEWDEKLKDQIVETRTPI", "soluble on expression in E. coli": "not soluble"},
      {"sequence": "MGSDKIHHHHHHMFDLHVHSVFSDGELIPSEIARRMYAAGNKGFAITDHADFTNIQDILAKLTRIKEHMESYEAKFLVGVEITHVPPSLIGKAVELAWKEGAEIVVVHGETVAEPVKEGTNLAALSEEITILAHPGIMSEEEAELARENGIYVEISARRGHCLGNGRVARLAEKYGFELVINTDMHSPSDIINDSTAERILKGAGVKEWKSVLENNEKLFRKLRK", "soluble on expression in E. coli": "not soluble"},
      {"sequence": "MAHHHHHHMNGNHGEPGTERENRSSADEAPKGDAFFDPSAEQYLVISPRQKLNPVLKKINRVRYKFSNIIPDFLIGKNNACLFISMKYHRLRSNYLKARIETLSNKYSNRILLCLVDIENIENSLGEINQLAFCFNMTLILCWSTEECARVIEDFKIYEKKISYIRNNKLTSTHAEKIHELLKKIRCINSSDCATITNKFKSFKNIVTAKKDDLINCSGLGNKKIQALISAFNDPFF", "soluble on expression in E. coli": "soluble"},
      {"sequence": "MKVYKDVFTNDEVCSDSYNQEDPFGIADFREIAFEVKSNKRIKGNDDYGIADNSEEAVDGMGADVEQVIDIVDSFQLTSTSLSKKEYSVYIKNYMQKILKYLEEKKPDRVDVFKTKAQPLIKHILTNFDDFEFYMGESLDMDAGLTYSYYKGEEVTPRFVYISDGLYEEKF", "soluble on expression in E. coli": "soluble"},
      {"sequence": "MAAKPVLYYFNGRGKMESIRWLLAAAGVEFEEVFLETREQYEKLLQSGILMFQQVPMVEIDGMKLVQTRAILNYIAGKYNLYGKDLKERALIDMYVGGTDDLMGFLLSFPFLSAEDKVKQCAFVVEKATSRYFPAYEKVLKDHGQDFLVGNRLSWADIHLLEAILMVEEKKSDALSGFPLLQAFKKRISSIPTIKKFLAPGSKRKPISDDKYVETVRRVLRMYYDVKPH", "soluble on expression in E. coli": "soluble"},
      {"sequence": "MGSDKIHHHHHHMITPQDRLIKALNGQVIDRSPCICPGGMMNMATTEIMQRVGSHWPEAHKKPQDMARLALGVCHLTGMENLGVPFCMTVEAEAMGAKVNLGSLANEPRVAEYPLMKLEDWETLSGINPGEGRAGIVAEAVSYLTSSKTELPVIANLTGPISLASSLIEPMVFFKAMGKKPELVHEFLYFVTDNLIVFGRSMLQAGAQIINIADPGGTEEILGPRHFAEFALPYINRILNELQGEYQASMVHICGRLQSIFTEINQLATNAISIDSTTSISKLRSALREKVVVGNISTYLLQNAQPGRVKATGFNCLRKGITILSPACGISPATPLANLQAMVSAVHDFDYQNREVSSLG", "soluble on expression in E. coli": "not soluble"},
      {"sequence": "KAGQVDTNDLWSSIPVSPDEYITQRLPILVARMREQWSNNDHVKRYIDLCRRNIVGPRGIVMQAQSRKSRSGALDTAINDAIETWWQDWGRKGQCEVTGKLSWREIQTLCVETCARDGEFIARKIYGTHAGPHGFCLQLIDPLRLPVRYQMLKTDQTGGFVRQGIEFNRFGKPLAYHFSSIDERDTYYYSINGRGYIRVPAEEVIHIFKPVMVGQRRGLPWAATSLLRLHHLQGFEEAAVQNARAAASKMGFVCYPEGVGPRADEQENVAQTIQMNAGPLAIHELPQGAEFQDWNPQYPSGEFGLFTKAAKQSLAAGMDLSYHALSGDLADVNYSSIRQGTLDERERWKEDQQ", "soluble on expression in E. coli": "not soluble"},
      {"sequence": "TGEKTILKLKRSCLKPELRRIKAIVGLGLSGFTMAITNCTVQIMCNATLQAYGGDLYVGVMTVVNSVREVASLPVSGITQSAQPVLGFNYGAGEYGRVKKA", "soluble on expression in E. coli": "not soluble"},
      {"sequence": "MAHHHHHHMTGWRQIVRCSICHLNRCAYPVTPALTDLKHLKHMWTLHGEAAPTADKQCLLLALAAEAGEQLAELNSRQAAAQAKAKEAQLAIAKHLGMLEMAVEASSYKIVDSTTPVNADSSANTAKLSLKIARGNNAGCSLTKAGEGNPFADDPLNEQNILNLKLTAATDVVKSLKETAISIRSASSNCPSDSTGKTGIKEALGSCNLGGSAEYEFTTAAATTGNAQSSVPVFKEESTTTNCGEVSGLSAEAMSPAQKLAKAICEAIKAKAGEGKTLRTATGETLSNRKTIQTFLRNCVPEFQKKN", "soluble on expression in E. coli": "not soluble"},
      {"sequence": "MDGDQVKGILKSGNNSAQFSLKAAKFDEVNILATFHPAGKDYGHMIIDEPKTPFVFEEDLPKELDTNALIEKLRHTSKSEMPAFGIEGDSEESSADEDFPESVEEKVRRMEFERRRKVHYKEFYSVPLARRLIADEFAELTSSEFNIHCEGGMESCEACSENNQLDGEASNLTQTKYSYSESQSEYRISDHSEPEPGFSPSHHCYQKLKAELFSKAEPEELASLTHLHRMPSVNDDEPSREPRVPYPSVVPTQTQNLHEHKSSLKITSEKPTPARICKSNPDNRPGTSKKETRLEHHHHHH", "soluble on expression in E. coli": "not soluble"},
      {"sequence": "MGSDKIHHHHHHMKKKTTTVYVDKQYKLTRDVAPLSFMLPIKHSRRFPLLHFDESTGTNRELRYARNQKSPFVDKQDGNALLEPVIFEDGFLFVKKENQVLQQFLHYHPLNGTKFVEVDKSKDAAQVVDQLMIEADALVEAKKLSLEQLENVCRVLFNTNVDKLTTAEMKRDVLVFAKNNPQDFLDICSDPELKIMGMVQSFFDKGHLAYRKSKKEVWYNTPTNKTKMLNVPFGADGLDLVVSYLQSDEGIDVLKHLETL", "soluble on expression in E. coli": "not soluble"},
      {"sequence": "VTMKEASAREIDEVVITGTGAQKKLTVTGAITNVDVDVLKANPSGSMANALAGNVPGILAMQTSGKPGSVSEFWIRGISTFGASNSALVLVDGFERSLDEINVEDVESFSVLKDASATAIYGSKGANGVVLITTKHGKAGK", "soluble on expression in E. coli": "not soluble"},
      {"sequence": "MGSDKIHHHHHHMGIVGLPNAGKSSFFNFLTDNSVPAESFPFCTIEPNVGILVVPDERIEILAKNEGSKKVVHPFVEVVDIAGLVKGASKGEGLGNQFLDHISKVDVIAHVVRLFEDGRVSHPYQNVDPKRDIEIVETELILKDLETVQKRLEKRMKVARTGDKEAKREVELLQNLREFLSQGKKASKFPRHDRFEEEVIESLFLLTDKPQILVFNVDELDEEKRKLIEEIVKEKDEEYIIINVKLEEELKFLPEEEAEVFRREYNLFGDKRKEFFEKVLKLLNLIRFLTATQNEARSWTIKKGSTAYEAAGLIHSDIQKGFIKVEVIPFERYVEFGSLKKAREAGAVETHGKDYIVREGDVIHFLFRA", "soluble on expression in E. coli": "not soluble"},
      {"sequence": "MEKNYYVCTGCGMLCDDIEVDVENNKINKVYTACRIGVAHMKDGKESAAFLVDNKPVDETTAISEAATILKNAKNPLIFGLGTSSNEAQKLAIELAKKTSATLDDASSFSLGEVIEALLNNKTKVCTLDDVRNKADVSIFWGTDPSDSHPRQLSKYAYFPRGTEKQRGWEEERTAICIDVRKSHTAKICGNYFFQIPPGGDAEFIDALIAALAGKLPKTSYNFPPKRILELANILKGAKFGVVFAGRGLVYSLDNLEPLIRLMNALNEKANFHLVPMIRQYNTRGFNENLFKETGYVNSVKFEDGTVKHGPEYSVVESLKEKTVDAALIIGSDPFSILPRSIAKNLLEVPVIVLDPCETLTSRNAKVYISTAIDGVESGGSAIRMDGVKVDFKPAVETKRPSDETVLKKIMEAL", "soluble on expression in E. coli": "not soluble"},
      {"sequence": "MEEFVNPCKIKVIGVGGGGSNAVNRMYEDGIEGVELYAINTDVQHLSTLKVPNKIQIGEKVTRGLGAGAKPEVGEEAALEDIDKIKEILRDTDMVFISAGLGGGTGTGAAPVIAKTAKEMGILTVAVATLPFRFEGPRKMEKALKGLEKLKESSDAYIVIHNDKIKELSNRTLTIKDAFKEVDSVLSKAVRGITSIVVTPAVINVDFADVRTTLEEGGLSIIGMGEGRGDEKADIAVEKAVTSPLLEGNTIEGARRLLVTIWTSEDIPYDIVDEVMERIHSKVHPEAEIIFGAVLEPQEQDFIRVAIVATDFPEEKFQVGEKEVKFKVIKKLHHHHHH", "soluble on expression in E. coli": "soluble"},
      {"sequence": "GPGSMVRRNNKSTESTIVFTRGAGDNSLWDDADLIRLWNAQLEEDQCEKAEDEAPVPSTVSEDGSLITTEDDEVAESEQKSSLRSFQSGQREAGVASAIVTAAPINASVAPVVLHQSMFDRLPADIRQLLVAYFNAGYEAGYFVGKRDGSSKVGGKRARGE", "soluble on expression in E. coli": "not soluble"},
      {"sequence": "GSEDLKKLEEEFDVRLGVYAIDTGADKEISYRENERFAYTSTFKPLAVGAVLQTKSDEELEETITYSEEDLVTYSPITEQHVDEGMTLVEIADAAIRYSDNTAGNLLLEAMGGPDELETILRDIGDETIEMDRYETELNEAKPGDIRDTSTAKAMATTLQQYVLEDVLDADRREVLTNMLINNTTGDALIRAGVPDGWTVGDKTGAGGYGTRNDIGIIWPEGDEEPIVIAIMSSRDEEDADYDDKLIEKATEIVLQELRN", "soluble on expression in E. coli": "soluble"},
      {"sequence": "MSSNENSDDVPEQRQIVRRSRVYNPRDPSSPEPPYDPYPPGIHAQAGCATRPISAHIVPQALIEPIRLHREEDELAGTSSCRPVPQCDFNLESDRWEEDQLENPQIKSQWKGSETRPVANFARRQQRVLRTDWKHVDVQITVWEELKKVLEAAEIVDVTLNMMKTLNPDTKAMWLLKFHTTSLTEYLEDFESRAEYFNEMLLELDGIHPDLFTECSNYISQLKDVTHSRELQAVQVHLPKAVKNSDAQKVRFYLQLAGEAKKDIAVVLNNNKVKTLLIDNGFTL", "soluble on expression in E. coli": "not soluble"},
      {"sequence": "MGRIKQGLDYFPLSTDFMHDRIVRRVMKREGDSAFTVLIYIMSYLYSGEGYYVRADTDFCDELSDQLFSTDNDTVRRVIRLFLEYGLFDSALYERYSILTSEDVQRQYLFITKRRSRHHICPDYCLLPEEKTTDEQPDTVAATGENVAVSPNIATASRDTATKTALIKRKEKEKKENIFPNPPFAKGGDEEEGSEGEKVAEGAGGGMREECDQRSATRKRNLTQEDIDRMQVPPDGCPRNFSGLLENLRLFRVPPAEQYAIVLKSNYGEIGGDIWKGFSVIRGSGGKIKLPGHYLLSVLNK", "soluble on expression in E. coli": "not soluble"},
      {"sequence": "MTDQIKTDNARSKAEQLPLAFSHQSASGREDLLVSASLAAAVSLVDEWPNWPSPVVVLAGPPGSGKSHLANIWKNISDARDIHPEAGADAARAAETGPVLFEDADRRGFDDTELFHVINSVRQHGTTLLMTSRQWPAAWPVTLPDLRSRLKAVTVVETGEPDEGLLAQVLVKLFADRQLYMDDKLIGYIVNRMERSLDTAQTIVEQIDHLALSRATRITRPLVAEVLNAMDKAAAGDGSDID", "soluble on expression in E. coli": "not soluble"},
      {"sequence": "STNLRAWLYQGDHCLESRQSEAGVTRLNGKSPAAVLAEVTTDWREENTPVVMAGMVGSNVGWKVAPYLSVPARFSSIGEQLTSVGDNIWIIPGLCVSHDDNHNVMRGEETQLIGARALAPSSLYVMPGTHCKWVQADSQQINDFRTVMTGELHHLLLNHSLIGAGLPPQENSADAFAAGLERGLNAPAILPQLFEVRASHVLGTLPREQVSEFLSGLLIGAEVASMRDYVTHQHAITLVAGTSLTARYQQAFQAMGCDVAAVAGDTAFQAGIRSIAHAVAN", "soluble on expression in E. coli": "not soluble"}
    ]}
  ]
}
